In patent publication US6991794B1, “Progenitor cell preservation factors and methods for and products of their use” (ImClone Systems Incorporated, priority 1997, dated 2006):

Test system: Flt3-expressing 3T3 cells
Experiment: Flt3 3T3 assay during purification of Pv-FRIL
Type: cell-based
Conditions: 80,000-fold purification; IL1-α or PHA-LCM as co-factor
Description: To create factor-dependence for receptor-transfected 3T3 cells, growth conditions were compromised to permit only ligands to rescue cells from death. To do this, 3T3 cell lines were assayed in 96 well plates (Becton Dickinson Labware, Lincoln Park, N.J.) containing 3,000 cells in 100 μL of serum-free medium consisting of 10% AIMV (Life Technologies) and 90% DMEM. In each experiment, samples were serially diluted two-fold across rows starting at a 1:10 dilution. Viable cells were quantitated after 3-5 days by XTT (2,3-bis[Methoxy-4-nitro-5sulfophenyl]-2H-tetrazolium-5 carboxanilide inner salt) (Sigma, St. Louis, Mo.) (Roehm et al., supra). Relative activity (units/ml) and specific activity (units/mg) are defined as the reciprocal dilution at which half-maximal stimulation of cells was detected.
Each batch of PHA-LCM was generated in serum-free medium with cells from individual normal donors. To start purification, the PHA-LCM with Flt3 3T3 activity was pooled in 30 liter lots with approximately 10^7 Flt3 3T3 units. Twenty-five liters of PHA-LCM was diafiltered into 50 mM Tris-HCl, pH 7.6, 50 mM NaCl and then concentrated to 2-2.5 liters by tangential flow ultrafiltration on a 10 kDa molecular weight cutoff membrane (Pellicon, Millipore, Bedford, Mass.). A Blue-sepharose FF (Pharmacia Biotech) column (10 cm×15 cm) was equilibrated with 50 mM Tris-HCl, pH 7.4,50 mM NaCl. […]

B1: Pv-FRIL: FRIL family mannose-binding lectin from Phaseolus vulgaris (red kidney bean), SEQ ID NO: 6 (protein)
chain: AQSLSFNFTKFDLDQKDLIFQGDATSTNNVLQLTKLDSGGNPVGASVGRVLFSAPFHLWENSMAVSSFETNLTIQISTPHPYYAADGFAFFLAPHDTVIPPNSWGKFLGLYSNVFRNSPTSENQSFGDVNTDSRVVAVEFDTFPNANIDPNYRHIGIDVNSIKSKETARWEWQNGKTATARISYNSASKKSTVTTFYPGMEVVALSHDVDLHAELPEWVRVGLSASTGEEKQKNTIISWSFTSSLKNNEVKEPKEDMYIANVVRSYTWINDVLSYISNKMYDALNNNHKYVRCSTCMLFMKKK
- specific activity of purified fraction: 244,500 units/mg
